# PMC11865472, “Structures of TGF-β with betaglycan and signaling receptors reveal mechanisms of complex assembly and signaling” (Nature Communications, 2025)
# T1: inhibin A (InhA), mature heterodimer, unlabelled (UniProt P05111 233-366; P08476 311-426)
# T1 construct: inhibin α subunit, residues 233-366 of NP_002182.1; inhibin βA subunit, residues 311-426 of NP_002183.1; The His and Strep tags stood on the two chains of the pro-inhibin; source: expi293F, secreted as pro-inhibin, purified by His and Strep tags; mature dimer purified on C18 RPC; copies: 1 + 1
# T1 sequence (looked up) 1: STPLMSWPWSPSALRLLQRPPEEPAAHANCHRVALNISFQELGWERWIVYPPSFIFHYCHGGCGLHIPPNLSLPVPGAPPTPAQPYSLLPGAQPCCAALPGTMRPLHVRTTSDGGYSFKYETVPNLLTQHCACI
# T1 sequence (looked up) 2: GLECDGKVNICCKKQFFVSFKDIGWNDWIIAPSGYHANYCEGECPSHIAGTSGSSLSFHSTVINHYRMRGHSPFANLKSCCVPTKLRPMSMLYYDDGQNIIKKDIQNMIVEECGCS
# Target: T1, inhibin A (InhA), mature heterodimer, …
# Test: NMR titration; methyl 1H-13C SOFAST-HMQC of labelled BG_ZP-C (15-25 µM) with growth factors; 25 mM 2H-glycine pH 11.0 or 25 mM phosphate pH 6.0; 37 °C
# Conditions: both partners purified
binder,measurement,value
"rat betaglycan ZP-C domain, bacterially expressed, isotopically labelled (domain or fragment, UniProt P26342 590-757, looked up, 2H, 13C-methyl Isoleucine, Leucine, Valine (ILV) labeled, betaglycan (TGFBR3), rat, residues 590-757 of NCBI NP_058952; A thrombin site lies between the Trx-His6 cassette and the domain; also called 13C-methyl-Ile BG_(ZP-C); ILV labeled BG_(ZP-C)) GNATFNMELYNTDLFLVPSPGVFSVAENEHVYVEVSVTKADQDLGFAIQTCFLSPYSNPDRMSDYTIIENICPKDDSVKFYSSKRVHFPIPHAEVDKKRFSFLFKSVFNTSLLFLHCELTLCSRKKGSLKLPRCVTPDDACTSLDATMIWTMMQNKKTFTKPLAVVLQ",binding result,binds
